The record followed here is patent US20100159527, “Polypeptides Having Nucleic Acid Binding Activity and Compositions and Methods For Nucleic Acid Amplification” (LIFE TECHNOLOGIES CORPORATION, published 2010).

The target in data set [1] is T1, Pae3192 (Pyrobaculum aerophilum).
T1 chain: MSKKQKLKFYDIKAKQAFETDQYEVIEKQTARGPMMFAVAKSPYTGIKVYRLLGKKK
Put plainly: EMSA; not shifted up to 12 uM protein; 170 mM NaCl, 1 mM CaCl2, 25 mM Tris pH 8.0, 40 C, RNasin Plus. The note with it: tags: expressed from pET16b with N-terminal 10xHis and Factor Xa site. The method, then:
(§1) Gel-shift experiments were carried out using 150 nM 42-mer duplex and separate experiments were performed with 0, 1.5, 3, 6 or 12 uM Pae3192 protein. A DNA:DNA duplex was created by annealing DNA oligonucleotides 1a and 2a of Table 1 below. An RNA:RNA duplex was created by annealing RNA oligonucleotides 1b and 2b of Table 1 below. A DNA:RNA duplex was created by annealing DNA oligonucleotide 1a to RNA oligonucleotide 2b of Table 1 below. DNA binding reactions contained 170 mM NaCl, 1 mM CaCl₂ and 25 mM Tris, pH 8.0. Pae3192 was incubated separately with each of the three duplexes for 15 minutes at 40° C. before being run on a 1% agarose gel.

For data set [2], the target named is T1, Pae3192. Put plainly: EMSA; 150 nM duplex, 0-12 uM protein; 170 mM NaCl, 1 mM CaCl2, 25 mM Tris pH 8.0, 40 C, 1% agarose. Particulars: tags: expressed from pET16b with N-terminal 10xHis and Factor Xa site. On the procedure:
as §1
(Mobility shift assays separate free from complexed probe on a gel.)

B1: 42-mer RNA:RNA duplex (oligos 1b+2b) (dsRNA)
RNA 1: CAGACUGGAAUUCAAGCGCGAGCUCGAAUAAGAGCUACUGUU
RNA 2: AACAGUAGCUCUUAUUCGAGCUCGCGCUUGAAUUCCAGUCUG
In the case of B1, the binding result in the data set with Pae3192 [1] is recorded as “no binding”.

B2: 42-mer DNA:DNA duplex (oligos 1a+2a) (dsDNA)
DNA 1: CAGACTGGAATTCAAGCGCGAGCTCGAATAAGAGCTACTGTT
DNA 2: AACAGTAGCTCTTATTCGAGCTCGCGCTTGAATTCCAGTCTG
For the molecule B2, the binding result with Pae3192 [2] is reported as “binds”.

B3: 42-mer DNA:RNA duplex (oligos 1a+2b) (DNA:RNA)
DNA: CAGACTGGAATTCAAGCGCGAGCTCGAATAAGAGCTACTGTT
RNA: AACAGUAGCUCUUAUUCGAGCUCGCGCUUGAAUUCCAGUCUG
For the molecule B3, the binding result with Pae3192 [2] is reported as “binds”.
